Data: paper doi:10.1101/854158 (bioRxiv, 2019)

Tests used:
Experiment in all cases: cryo-EM structure
FANCE = biological target: T1, FANCE (human, UniProt Q9HB96 1-536)
T1 sequence: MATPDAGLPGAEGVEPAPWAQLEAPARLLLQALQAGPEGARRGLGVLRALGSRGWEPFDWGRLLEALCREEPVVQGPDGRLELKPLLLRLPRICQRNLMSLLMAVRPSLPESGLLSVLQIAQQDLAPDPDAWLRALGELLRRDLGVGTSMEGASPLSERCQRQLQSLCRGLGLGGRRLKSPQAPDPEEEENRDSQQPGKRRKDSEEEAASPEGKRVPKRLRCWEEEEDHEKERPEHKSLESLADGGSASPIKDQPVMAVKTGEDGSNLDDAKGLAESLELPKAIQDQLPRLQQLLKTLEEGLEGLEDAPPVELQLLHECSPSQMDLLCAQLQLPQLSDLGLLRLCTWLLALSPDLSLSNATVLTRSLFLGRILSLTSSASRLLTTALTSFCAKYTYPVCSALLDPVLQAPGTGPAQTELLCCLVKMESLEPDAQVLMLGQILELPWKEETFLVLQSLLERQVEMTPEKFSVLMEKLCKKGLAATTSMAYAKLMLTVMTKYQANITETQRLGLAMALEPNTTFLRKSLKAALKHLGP

FANCI = biological target: T2, FANCI (human, UniProt Q9NVI1 1-1328)
T2 sequence: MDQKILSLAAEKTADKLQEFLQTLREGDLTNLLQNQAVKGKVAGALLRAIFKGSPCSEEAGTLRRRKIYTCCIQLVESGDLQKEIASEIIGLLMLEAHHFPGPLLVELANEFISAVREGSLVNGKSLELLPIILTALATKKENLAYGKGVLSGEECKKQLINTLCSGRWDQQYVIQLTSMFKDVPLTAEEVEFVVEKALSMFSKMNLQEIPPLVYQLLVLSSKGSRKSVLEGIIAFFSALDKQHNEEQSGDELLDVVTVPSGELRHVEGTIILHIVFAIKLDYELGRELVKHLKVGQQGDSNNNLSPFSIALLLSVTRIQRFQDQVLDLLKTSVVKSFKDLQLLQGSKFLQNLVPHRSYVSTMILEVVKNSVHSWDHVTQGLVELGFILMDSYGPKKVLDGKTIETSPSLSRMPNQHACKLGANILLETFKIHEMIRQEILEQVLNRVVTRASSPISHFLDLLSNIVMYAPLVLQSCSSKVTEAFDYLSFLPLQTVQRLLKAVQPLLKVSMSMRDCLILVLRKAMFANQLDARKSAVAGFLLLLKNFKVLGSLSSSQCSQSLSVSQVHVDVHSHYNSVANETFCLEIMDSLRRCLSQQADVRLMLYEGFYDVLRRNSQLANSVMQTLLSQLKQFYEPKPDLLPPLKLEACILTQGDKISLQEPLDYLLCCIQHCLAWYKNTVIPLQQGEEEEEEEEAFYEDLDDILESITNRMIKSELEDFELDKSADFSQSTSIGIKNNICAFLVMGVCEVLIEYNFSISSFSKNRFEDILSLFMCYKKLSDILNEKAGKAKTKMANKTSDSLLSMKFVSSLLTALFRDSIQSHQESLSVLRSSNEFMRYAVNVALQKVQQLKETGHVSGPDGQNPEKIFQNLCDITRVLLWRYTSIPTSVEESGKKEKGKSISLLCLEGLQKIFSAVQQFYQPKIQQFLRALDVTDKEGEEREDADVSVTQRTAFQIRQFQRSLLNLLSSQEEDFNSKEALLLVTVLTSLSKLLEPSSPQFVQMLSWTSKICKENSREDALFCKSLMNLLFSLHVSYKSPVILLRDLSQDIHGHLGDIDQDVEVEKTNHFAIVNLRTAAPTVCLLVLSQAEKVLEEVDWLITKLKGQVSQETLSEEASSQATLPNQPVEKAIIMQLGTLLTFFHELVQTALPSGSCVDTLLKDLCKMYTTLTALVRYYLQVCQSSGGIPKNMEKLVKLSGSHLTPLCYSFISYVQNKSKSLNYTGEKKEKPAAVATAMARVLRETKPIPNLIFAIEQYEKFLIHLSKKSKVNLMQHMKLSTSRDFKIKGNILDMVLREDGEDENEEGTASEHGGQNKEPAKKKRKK

FANCC = biological target: T3, FANCC (human, UniProt Q00597 1-558)
T3 sequence: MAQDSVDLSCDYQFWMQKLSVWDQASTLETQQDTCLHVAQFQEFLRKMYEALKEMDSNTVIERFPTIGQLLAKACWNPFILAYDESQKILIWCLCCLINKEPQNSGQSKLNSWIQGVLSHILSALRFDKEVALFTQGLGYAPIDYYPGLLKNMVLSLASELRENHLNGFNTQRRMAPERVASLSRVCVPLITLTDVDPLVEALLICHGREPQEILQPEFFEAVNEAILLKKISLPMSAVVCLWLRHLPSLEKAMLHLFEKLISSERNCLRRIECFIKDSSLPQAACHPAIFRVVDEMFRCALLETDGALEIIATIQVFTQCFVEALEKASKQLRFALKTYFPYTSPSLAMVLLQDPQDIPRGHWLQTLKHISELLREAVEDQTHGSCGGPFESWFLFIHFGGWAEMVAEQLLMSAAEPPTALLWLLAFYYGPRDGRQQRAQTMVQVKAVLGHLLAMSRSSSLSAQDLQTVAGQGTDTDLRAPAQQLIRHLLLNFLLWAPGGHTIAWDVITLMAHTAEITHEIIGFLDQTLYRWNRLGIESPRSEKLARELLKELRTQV

Measured: binding result

B1: FANCL (enzyme)
chain: MAVTEASLLRQCPLLLPQNRSKTVYEGFISAQGRDFHLRIVLPEDLQLKNARLLCSWQLRTILSGYHRIVQQRMQHSPDLMSFMMELKMLLEVALKNRQELYALPPPPQFYSSLIEEIGTLGWDKLVYADTCFSTIKLKAEDASGREHLITLKLKAKYPAESPDYFVDFPVPFCASWTPQSSLISIYSQFLAAIESLKAFWDVMDEIDEKTWVLEPEKPPRSATARRIALGNNVSINIEVDPRHPTMLPECFFLGADHVVKPLGIKLSRNIHLWDPENSVLQNLKDVLEIDFPARAILEKSDFTMDCGICYAYQLDGTIPDQVCDNSQCGQPFHQICLYEWLRGLLTSRQSFNIIFGECPYCSKPITLKMSGRKH
binds: all assays above
